Several values for one entry are separate records, joined by “and”; a condition that tells them apart may be missing. Equal values may be shown once.
Tests used:
SAH6 [1] = target: T1, SAH6 (Rattus norvegicus, UniProt P31652, A505L/G278A/L99A); assay: [125I]-RTI55 saturation binding on membranes, SAH6; set-up: expressed in transfected cells; host or cells: T-REx-293 (HEK293) cells, membranes; settings: read-out: apparent KD for [125I]-RTI55 binding
SAH7 = target: T2, SAH7 (Rattus norvegicus, UniProt P31652, A505L/L405A/P499A); assay: [125I]-RTI55 saturation binding on membranes, SAH7; settings: read-out: apparent KD for [125I]-RTI55 binding
T2 construct: expressed in transfected cells; host or cells: T-REx-293 (HEK293) cells, membranes

SAH6 [2] = target: T1, SAH6; settings: SAH6 vs wild-type SERT
[3] = Thermostability assay of [125I]-RTI55-bound detergent-solubilised SERT (apparent Tm)
[4] = system: tetracycline-induced stable T-REx cell lines; assay: [3H]-5HT uptake assay; format: cell-based; settings: cell lines expressing cell surface-expressed mutant-GFP
T-REx-293 cells [5] = assay: Expression level of SERT-mCherry mutants transiently transfected into T-REx-293 cells; format: cell-based; settings: relative to wild-type SERT = 100%; transient transfection
Description: (FIG. 3A) Comparison of [^125I]-RTI55 bound to 554 detergent-solubilised Ala/Leu mutants at either 4° C. or after heating at 30° C. for 30 minutes. The data relating to thermostability (the heated samples) have been normalized to the amount of wild-type SERT remaining after heating (40%; horizontal dashed line). The expression level of wild-type SERT is indicated by the vertical dashed line and the grey column (0-200 dpm) represents non-specific binding of [^125I]-RTI55 to the parental T-REx-HEK293 cell line (no SERT). Each data point represents binding to the equivalent of 50,000 cells measured in duplicate (estimated error is ±20% in dpm). […] (FIG. 3C) Amino acid sequence of SERT (SEQ ID NO: 1) showing the positions of the thermostabilising mutations (hatched) that consistently gave >1° C. increase in Tm compared to wild-type SERT; residues in bold and hatched were used to stabilize either SAH6 and/or SAH7. N-linked glycosylation sites are indicated by the hexagons, a putative disulphide bond is shown as a grey line and the N-terminal and C-terminal fusion partners are shown (c-Myc tag and the fluorescent reporter protein mCherry) are indicated.

T-REx-293 cells [6] = assay: Cell surface expression by confocal microscopy; format: cell-based; set-up: key: *: low expression; **: as wild-type SERT; ***: higher expression than wild-type SERT; settings: estimation by eye of fluorescence upon confocal microscopy

COC(=O)[C@H]1C(c2ccc(I)cc2)C[C@@H]2CC[C@H]1N2C (stereo partly drawn) [[^125I]-RTI55, RTI55 (β-CIT)]
Kd (SAH6 [1]): 3.8 nM and 3.7 nM
Kd (SAH7): 1.3 nM and 1.2 nM and 1.5 nM

CN(C)CCCN1c2ccccc2CCc2ccccc21 [imipramine]
decrease in affinity relative to wild-type SERT (SAH6 [2]): 6.7 fold

ibogaine
decrease in affinity relative to wild-type SERT (SAH6 [2]): 4.5 fold

B1: wild-type SERT: cocaine-sensitive rat serotonin transporter, parent protein (protein, listed as Rattus sp.)
chain: METTPLNSQKVLSECKDREDCQENGVLQKGVPTTADRAEPSQISNGYSAVPSTSAGDEASHSIPAATTTLVAEIRQGERETWGKKMDFLLSVIGYAVDLGNIWRFPYICYQNGGGAFLLPYTIMAIFGGIPLFYMELALGQYHRNGCISIWRKICPIFKGIGYAICIIAFYIASYYNTIIAWALYYLISSLTDRLPWTSCTNSWNTGNCTNYFAQDNITWTLHSTSPAEEFYLRHVLQIHQSKGLQDLGTISWQLTLCIVLIFTVIYFSIWKGVKTSGKVVWVTATFPYIVLSVLLVRGATLPGAWRGVVFYLKPNWQKLLETGVWVDAAAQIFFSLGPGFGVLLAFASYNKFNNNCYQDALVTSVVNCMTSFVSGFVIFTVLGYMAEMRNEDVSEVAKDAGPSLLFITYAEAIANMPASTFFAIIFFLMLITLGLDSTFAGLEGVITAVLDEFPHIWAKRREWFVLIVVITCVLGSLLTLTSGGAYVVTLLEEYATGPAVLTVALIEAVAVSWFYGITQFCSDVKEMLGFSPGWFWRICWVAISPLFLLFIICSFLMSPPQLRLFQYNYPHWSIVLGYCIGMSSVICIPTYIIYRLISTPGTLKERIIKSITPETPTEIPCGDIRMNAV
amount of transporter remaining after heating ([3]; 30° C. for 30 minutes): 40%
Apparent Tm in 0.1% DDM ([3]; 125I-RTI55-bound detergent-solubilised SERT, apparent Tm ±1° C.): 28 °C
apparent Tm ([3]; [125I]-RTI55-bound, DDM-solubilised, 30 min heating): 28 °C
transporter remaining functional after heating ([3]; single-temperature assay, 28° C. for 30 minutes): approximately 40%

B2: SAH7: thermostabilised rat SERT triple mutant A505L+P499A+L405A (protein, UniProt P31652 1-630, looked up, variant A505L P499A L405A)
Sodium-dependent serotonin …: METTPLNSQKVLSECKDREDCQENGVLQKGVPTTADRAEPSQISNGYSAVPSTSAGDEASHSIPAATTTLVAEIRQGERETWGKKMDFLLSVIGYAVDLGNIWRFPYICYQNGGGAFLLPYTIMAIFGGIPLFYMELALGQYHRNGCISIWRKICPIFKGIGYAICIIAFYIASYYNTIIAWALYYLISSLTDRLPWTSCTNSWNTGNCTNYFAQDNITWTLHSTSPAEEFYLRHVLQIHQSKGLQDLGTISWQLTLCIVLIFTVIYFSIWKGVKTSGKVVWVTATFPYIVLSVLLVRGATLPGAWRGVVFYLKPNWQKLLETGVWVDAAAQIFFSLGPGFGVLLAFASYNKFNNNCYQDALVTSVVNCMTSFVSGFVIFTVLGYMAEMRNEDVSEVAKDAGPSALFITYAEAIANMPASTFFAIIFFLMLITLGLDSTFAGLEGVITAVLDEFPHIWAKRREWFVLIVVITCVLGSLLTLTSGGAYVVTLLEEYATGAAVLTVLLIEAVAVSWFYGITQFCSDVKEMLGFSPGWFWRICWVAISPLFLLFIICSFLMSPPQLRLFQYNYPHWSIVLGYCIGMSSVICIPTYIIYRLISTPGTLKERIIKSITPETPTEIPCGDIRMNAV
transport of [3H]-5HT into the cell [4]: no significant transport

B3: SAH6: thermostabilised rat SERT triple mutant A505L+L99A+G278A (protein, UniProt P31652 1-630, looked up, variant A505L L99A G278A)
Sodium-dependent serotonin …: METTPLNSQKVLSECKDREDCQENGVLQKGVPTTADRAEPSQISNGYSAVPSTSAGDEASHSIPAATTTLVAEIRQGERETWGKKMDFLLSVIGYAVDAGNIWRFPYICYQNGGGAFLLPYTIMAIFGGIPLFYMELALGQYHRNGCISIWRKICPIFKGIGYAICIIAFYIASYYNTIIAWALYYLISSLTDRLPWTSCTNSWNTGNCTNYFAQDNITWTLHSTSPAEEFYLRHVLQIHQSKGLQDLGTISWQLTLCIVLIFTVIYFSIWKGVKTSAKVVWVTATFPYIVLSVLLVRGATLPGAWRGVVFYLKPNWQKLLETGVWVDAAAQIFFSLGPGFGVLLAFASYNKFNNNCYQDALVTSVVNCMTSFVSGFVIFTVLGYMAEMRNEDVSEVAKDAGPSLLFITYAEAIANMPASTFFAIIFFLMLITLGLDSTFAGLEGVITAVLDEFPHIWAKRREWFVLIVVITCVLGSLLTLTSGGAYVVTLLEEYATGPAVLTVLLIEAVAVSWFYGITQFCSDVKEMLGFSPGWFWRICWVAISPLFLLFIICSFLMSPPQLRLFQYNYPHWSIVLGYCIGMSSVICIPTYIIYRLISTPGTLKERIIKSITPETPTEIPCGDIRMNAV
transport of [3H]-5HT into the cell [4]: no significant transport

B4: G113A: rat SERT single mutant G113A (protein)
chain: METTPLNSQKVLSECKDREDCQENGVLQKGVPTTADRAEPSQISNGYSAVPSTSAGDEASHSIPAATTTLVAEIRQGERETWGKKMDFLLSVIGYAVDLGNIWRFPYICYQNAGGAFLLPYTIMAIFGGIPLFYMELALGQYHRNGCISIWRKICPIFKGIGYAICIIAFYIASYYNTIIAWALYYLISSLTDRLPWTSCTNSWNTGNCTNYFAQDNITWTLHSTSPAEEFYLRHVLQIHQSKGLQDLGTISWQLTLCIVLIFTVIYFSIWKGVKTSGKVVWVTATFPYIVLSVLLVRGATLPGAWRGVVFYLKPNWQKLLETGVWVDAAAQIFFSLGPGFGVLLAFASYNKFNNNCYQDALVTSVVNCMTSFVSGFVIFTVLGYMAEMRNEDVSEVAKDAGPSLLFITYAEAIANMPASTFFAIIFFLMLITLGLDSTFAGLEGVITAVLDEFPHIWAKRREWFVLIVVITCVLGSLLTLTSGGAYVVTLLEEYATGPAVLTVALIEAVAVSWFYGITQFCSDVKEMLGFSPGWFWRICWVAISPLFLLFIICSFLMSPPQLRLFQYNYPHWSIVLGYCIGMSSVICIPTYIIYRLISTPGTLKERIIKSITPETPTEIPCGDIRMNAV
Expression (%) SERT = 100% (T-REx-293 cells [5]): 42%
Cell surface expression (T-REx-293 cells [6]): **

B5: P499A: rat SERT single mutant P499A (protein)
chain: METTPLNSQKVLSECKDREDCQENGVLQKGVPTTADRAEPSQISNGYSAVPSTSAGDEASHSIPAATTTLVAEIRQGERETWGKKMDFLLSVIGYAVDLGNIWRFPYICYQNGGGAFLLPYTIMAIFGGIPLFYMELALGQYHRNGCISIWRKICPIFKGIGYAICIIAFYIASYYNTIIAWALYYLISSLTDRLPWTSCTNSWNTGNCTNYFAQDNITWTLHSTSPAEEFYLRHVLQIHQSKGLQDLGTISWQLTLCIVLIFTVIYFSIWKGVKTSGKVVWVTATFPYIVLSVLLVRGATLPGAWRGVVFYLKPNWQKLLETGVWVDAAAQIFFSLGPGFGVLLAFASYNKFNNNCYQDALVTSVVNCMTSFVSGFVIFTVLGYMAEMRNEDVSEVAKDAGPSLLFITYAEAIANMPASTFFAIIFFLMLITLGLDSTFAGLEGVITAVLDEFPHIWAKRREWFVLIVVITCVLGSLLTLTSGGAYVVTLLEEYATGAAVLTVALIEAVAVSWFYGITQFCSDVKEMLGFSPGWFWRICWVAISPLFLLFIICSFLMSPPQLRLFQYNYPHWSIVLGYCIGMSSVICIPTYIIYRLISTPGTLKERIIKSITPETPTEIPCGDIRMNAV
Expression (%) SERT = 100% (T-REx-293 cells [5]): 65%
Cell surface expression (T-REx-293 cells [6]): **

B6: A505L: rat SERT single mutant A505L (protein)
chain: METTPLNSQKVLSECKDREDCQENGVLQKGVPTTADRAEPSQISNGYSAVPSTSAGDEASHSIPAATTTLVAEIRQGERETWGKKMDFLLSVIGYAVDLGNIWRFPYICYQNGGGAFLLPYTIMAIFGGIPLFYMELALGQYHRNGCISIWRKICPIFKGIGYAICIIAFYIASYYNTIIAWALYYLISSLTDRLPWTSCTNSWNTGNCTNYFAQDNITWTLHSTSPAEEFYLRHVLQIHQSKGLQDLGTISWQLTLCIVLIFTVIYFSIWKGVKTSGKVVWVTATFPYIVLSVLLVRGATLPGAWRGVVFYLKPNWQKLLETGVWVDAAAQIFFSLGPGFGVLLAFASYNKFNNNCYQDALVTSVVNCMTSFVSGFVIFTVLGYMAEMRNEDVSEVAKDAGPSLLFITYAEAIANMPASTFFAIIFFLMLITLGLDSTFAGLEGVITAVLDEFPHIWAKRREWFVLIVVITCVLGSLLTLTSGGAYVVTLLEEYATGPAVLTVLLIEAVAVSWFYGITQFCSDVKEMLGFSPGWFWRICWVAISPLFLLFIICSFLMSPPQLRLFQYNYPHWSIVLGYCIGMSSVICIPTYIIYRLISTPGTLKERIIKSITPETPTEIPCGDIRMNAV
Expression (%) SERT = 100% (T-REx-293 cells [5]): 175%
Cell surface expression (T-REx-293 cells [6]): ***

— US10544202B2, “Mutant proteins and methods for their production” (Medical Research Council, priority 2013, dated 2020)
